Measurements from US20140112930A1 (published 2014).

How the values were obtained:
Human Ang-2FD-hFc = target: T1, Human Ang-2FD-hFc (human); experiment: blocking ELISA, 16.67 nM antibody, Ang-2FD-hFc to coated hTie-2-mFc
T1 construct: also called dimeric human Ang-2FD; human Ang-2FD protein conjugated to human IgG

Mouse Ang-2FD-hFc = target: T2, Mouse Ang-2FD-hFc (mouse (Mus musculus)); experiment: as above
T2 construct: also called dimeric mouse Ang-2FD

Monkey Ang-2FD-hFc = target: T3, Monkey Ang-2FD-hFc (monkey (Macca fascicularis)); experiment: as above
T3 construct: also called dimeric monkey Ang-2FD

hAng-1-WT [1] = target: T4, hAng-1-WT (human, UniProt Q15389 20-498, limits assumed); experiment: SPR, 1 uM blocker premixed with 10 nM hAng-1-WT, over hTie-2-mFc surface; RU of hAng-1 bound
T4 construct: a tag is not mentioned there; also called full-length wild-type human Ang-1
T4 sequence (looked up): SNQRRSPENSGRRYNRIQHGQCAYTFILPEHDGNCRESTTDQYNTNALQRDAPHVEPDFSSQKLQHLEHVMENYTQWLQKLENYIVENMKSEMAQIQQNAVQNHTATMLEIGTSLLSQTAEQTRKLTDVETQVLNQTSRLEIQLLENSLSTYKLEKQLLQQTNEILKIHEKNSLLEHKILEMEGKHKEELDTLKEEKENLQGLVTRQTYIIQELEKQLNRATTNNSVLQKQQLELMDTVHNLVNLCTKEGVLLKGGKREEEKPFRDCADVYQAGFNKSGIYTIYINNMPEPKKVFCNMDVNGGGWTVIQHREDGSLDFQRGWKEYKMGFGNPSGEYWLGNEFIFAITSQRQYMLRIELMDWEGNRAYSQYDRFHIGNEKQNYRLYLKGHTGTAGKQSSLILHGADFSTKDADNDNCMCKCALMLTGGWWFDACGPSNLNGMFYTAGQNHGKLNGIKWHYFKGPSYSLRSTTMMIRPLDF
Experimental: (§1) In this experiment, a human Tie-2 full-length extracellular domain construct (hTie-2-mFc-ecto) was amine-coupled on a BIACORE™ chip to create a receptor coated surface. […] The equilibrated solutions were injected over the receptor surfaces at 5 μL/min for 5 minutes at 25° C.

[2] = target: T5, Full-length human Ang-1 protein conjugated to 6x histidine tag (human, UniProt Q15389 20-498, limits assumed); experiment: blocking ELISA, 0.6 nM hAng-1-His to coated hTie-2-mFc
T5 construct: Bought (R&D Systems); printed as full-length; also called hAng-1 WT; Ang-1-His; not shown: 6x histidine tag
T5 sequence (looked up): T4 sequence (looked up)
Experimental: (§2) Briefly, hTie-2-mFc (a chimeric construct consisting of human Tie-2 conjugated to mouse IgG; SEQ ID NO:525) was coated onto 96-well plates at a concentration of 2 μg/ml and incubated overnight followed by washing four times in wash buffer (PBS with 0.05% Tween-20). The plate was then blocked with PBS (Irvine Scientific, Santa Ana, Calif.) containing 0.5% BSA (Sigma-Aldrich Corp., St. Louis, Mo.) for one hour at room temperature. […] The antibody/antigen mixture was then added to the plate containing hTie-2-mFc and incubated for one hour at room temperature. […] Absorbance was read at OD₄₅₀ for 0.1 sec.

Biotin-hBA2 = target: T6, Biotin-hBA2 (human, biotinylated (sites not given)); experiment: blocking ELISA, biotin-hBA2 to hTie-2
T6 construct: hBA2 consists of two dimers; also called biotinylated hBA2; human bow-Ang2

[3] = target: T7, Full-length human Ang-2 protein conjugated to 6x histidine tag (human, UniProt O15123 19-496); experiment: blocking ELISA, 0.6 nM hAng-2-His to coated hTie-2-mFc
T7 construct: Bought (R&D Systems); printed as full-length; also called hAng-2 WT; Ang-2-His; not shown: 6x histidine tag
T7 sequence: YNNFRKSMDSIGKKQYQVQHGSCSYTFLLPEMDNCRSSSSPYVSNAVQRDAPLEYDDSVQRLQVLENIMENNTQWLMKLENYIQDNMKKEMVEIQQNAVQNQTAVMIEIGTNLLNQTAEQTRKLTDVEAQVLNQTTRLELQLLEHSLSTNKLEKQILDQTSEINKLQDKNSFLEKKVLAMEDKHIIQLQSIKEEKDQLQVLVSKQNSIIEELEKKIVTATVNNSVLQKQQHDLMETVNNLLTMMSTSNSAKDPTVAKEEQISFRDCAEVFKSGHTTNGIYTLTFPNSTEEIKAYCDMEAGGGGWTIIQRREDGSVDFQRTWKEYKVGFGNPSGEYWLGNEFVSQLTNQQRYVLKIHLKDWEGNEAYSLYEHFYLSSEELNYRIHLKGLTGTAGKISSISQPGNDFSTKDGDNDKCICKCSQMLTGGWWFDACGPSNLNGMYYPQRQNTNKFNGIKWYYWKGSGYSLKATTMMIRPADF
Experimental: as §2

hAng-1-WT [4] = target: T4, hAng-1-WT; experiment: SPR, 1 uM blocker premixed with 10 nM hAng-1-WT, over hTie-2-mFc surface
Experimental: as §1

T1 sequence (chain, as listed by the source limits assumed): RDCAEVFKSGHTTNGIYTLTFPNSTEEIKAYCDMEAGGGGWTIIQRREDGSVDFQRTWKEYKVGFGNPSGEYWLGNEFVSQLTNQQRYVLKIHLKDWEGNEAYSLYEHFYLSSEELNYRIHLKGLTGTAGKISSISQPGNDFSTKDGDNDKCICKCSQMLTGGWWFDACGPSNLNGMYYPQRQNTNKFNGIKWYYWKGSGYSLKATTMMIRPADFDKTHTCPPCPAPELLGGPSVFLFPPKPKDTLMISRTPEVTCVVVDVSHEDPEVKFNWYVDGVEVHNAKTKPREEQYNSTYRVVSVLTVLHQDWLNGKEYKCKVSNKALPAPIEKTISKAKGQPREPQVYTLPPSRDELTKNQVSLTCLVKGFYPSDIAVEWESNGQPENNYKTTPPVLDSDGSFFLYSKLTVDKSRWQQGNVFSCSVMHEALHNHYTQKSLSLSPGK
T6 sequence (chain, as listed by the source limits assumed): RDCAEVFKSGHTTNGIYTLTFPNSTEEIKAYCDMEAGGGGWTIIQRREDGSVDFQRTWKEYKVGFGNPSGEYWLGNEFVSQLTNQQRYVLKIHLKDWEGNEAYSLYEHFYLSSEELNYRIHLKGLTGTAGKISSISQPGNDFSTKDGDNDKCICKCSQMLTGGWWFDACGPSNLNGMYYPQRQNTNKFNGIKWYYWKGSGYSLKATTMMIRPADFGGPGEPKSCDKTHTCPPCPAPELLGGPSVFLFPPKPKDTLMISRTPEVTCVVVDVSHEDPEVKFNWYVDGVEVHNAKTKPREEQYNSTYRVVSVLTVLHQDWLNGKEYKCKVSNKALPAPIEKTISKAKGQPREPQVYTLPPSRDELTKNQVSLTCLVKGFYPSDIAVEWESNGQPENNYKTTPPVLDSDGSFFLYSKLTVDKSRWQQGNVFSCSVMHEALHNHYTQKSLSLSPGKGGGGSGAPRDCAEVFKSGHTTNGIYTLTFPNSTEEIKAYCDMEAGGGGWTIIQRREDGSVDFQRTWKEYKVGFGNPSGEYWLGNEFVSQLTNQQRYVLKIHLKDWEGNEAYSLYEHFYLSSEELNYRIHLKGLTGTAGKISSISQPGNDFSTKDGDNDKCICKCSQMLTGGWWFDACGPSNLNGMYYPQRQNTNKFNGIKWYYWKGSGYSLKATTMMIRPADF
T2 sequence (chain, as listed by the source limits assumed): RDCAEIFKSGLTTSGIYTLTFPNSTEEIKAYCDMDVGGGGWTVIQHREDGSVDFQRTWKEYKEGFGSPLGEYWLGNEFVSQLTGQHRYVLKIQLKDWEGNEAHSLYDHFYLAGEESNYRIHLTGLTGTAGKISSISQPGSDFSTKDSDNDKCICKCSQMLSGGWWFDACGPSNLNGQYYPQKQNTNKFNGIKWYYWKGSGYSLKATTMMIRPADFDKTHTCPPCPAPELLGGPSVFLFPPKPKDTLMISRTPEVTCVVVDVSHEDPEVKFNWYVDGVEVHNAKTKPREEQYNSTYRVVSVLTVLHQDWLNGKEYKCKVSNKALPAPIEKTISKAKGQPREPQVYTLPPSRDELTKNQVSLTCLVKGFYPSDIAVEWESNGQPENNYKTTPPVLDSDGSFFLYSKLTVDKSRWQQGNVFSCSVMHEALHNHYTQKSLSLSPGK
T3 sequence (chain, as listed by the source limits assumed): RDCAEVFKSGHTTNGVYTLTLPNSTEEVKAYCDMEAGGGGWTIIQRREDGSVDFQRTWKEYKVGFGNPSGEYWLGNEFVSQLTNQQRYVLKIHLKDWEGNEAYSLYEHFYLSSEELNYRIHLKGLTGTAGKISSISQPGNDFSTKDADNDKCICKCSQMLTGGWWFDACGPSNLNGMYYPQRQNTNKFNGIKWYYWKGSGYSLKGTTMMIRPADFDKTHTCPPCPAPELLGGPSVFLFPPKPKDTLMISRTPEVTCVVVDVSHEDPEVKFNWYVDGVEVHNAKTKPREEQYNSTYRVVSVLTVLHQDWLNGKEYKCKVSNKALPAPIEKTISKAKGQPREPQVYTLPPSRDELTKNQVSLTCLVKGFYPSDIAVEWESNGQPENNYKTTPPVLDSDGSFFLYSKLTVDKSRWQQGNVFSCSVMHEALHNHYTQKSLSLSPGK

B1: H1H744N (antibody, V domains shown)
VH: QVQLVQSGVEVKKPGASVKVSCKTSGYTFSNNGFSWVRQAPGQGLEWLGWISGYNGNTNYAQKFQGRVTMTTDTSTSTAYMELRTLRSDDTAVYYCARDQDYSNFHWLDPWGQGTLVTVAS
VL: DIQMTQSPSSVSASVGDRVIITCRASQGLSSWLAWYQQKPGTAPKLLIHSASSLQTGVPSRFSGSGSGTEFALTINSLQPEDFGTYYCQQANSFPLTFGGGTRVEIK
With B1 the “Percent Blocking of Ang-2FD Binding to Tie-2” value (“Percent Blocking” for short) (Human Ang-2FD-hFc) was 97.9%, the “Percent Blocking” value (Mouse Ang-2FD-hFc) was 97.6% and the “Percent Blocking” value (Monkey Ang-2FD-hFc) was 96.2%. For the same binder, the “RU (average)” value (hAng-1-WT [1]) was 57 RU, the IC50 [2] was 187 nM and the IC50 (Biotin-hBA2) was 0.025 nM. For the same binder, the IC50 [3] was 0.0787 nM and the “Percent of Negative Control Binding” value (hAng-1-WT [4]) was 34%.
